# Measured values taken from US20230340069A1.
# How the values were obtained:
# human IgG1 = experiment: ELISA, IgG1 antibody coated on plate, detection with Strep-Tactin-HRP
# [1] = target: Polyclonal human IgG Gammanorm (human); experiment: Fc binding protein coupled to Praesto Pure45 agarose beads; polyclonal human IgG Gammanorm (2.2 mg/ml) loaded; mass of hIgG injected at 10% breakthrough, 6 min residence time
Kd (human IgG1) [nM],Substance,dynamic binding capacity [1] [mg/mL]
3.4,Protein A domain Z,–
–,R PROTEIN A,37.4
